{
  "source": "patent US20090203610A1",
  "about": "“METHODS OF TREATING OBESITY OR DIABETES USING NT-4/5” (RINAT NEUROSCIENCE CORPORATION, priority 2004, published 2009)",
  "molecules": {"B1": {"name": "NT-4/5: mature human neurotrophin-4/5 (SEQ ID NO:1), obtained from Genentech or produced in E. coli (protein, listed as Homo sapiens)", "chain": "GVSETAPASRRGELAVCDAVSGWVTDRRTAVDLRGREVEVLGEVPAAGGSPLRQYFFETRCKADNAEEGGPGAGGGGCRGVDRRHWVSECKAKQSYVRALTADAQGRVGWRWIRIDTACVCTLLSRTGRA"}},
  "format_in_all_cases": "in vivo",
  "key": {"[1]": {"test_system": "db/db mice", "experiment": "Dose response of NT-4/5 on food intake of db/db mice (Example 2)", "procedure": "Db/db mice maintained as described in Example 1 were divided into five groups (groups 1-5). Group 1 (7 mice) were administered with vehicle (PBS). Group 2 (7 mice), group 3 (8 mice), group 4 (8 mice), group 5 (8 mice) were each administered with NT-4/5 at the doses of 2 mg/kg, 5 mg/kg, 10 mg/kg, and 20 mg/kg, respectively. Both the vehicle and NT-4/5 were administered to each group of the mice subcutaneously once daily for five days. One day before beginning the treatment (T0), blood samples were collected from the mice as described previously for the determination of baseline levels of serum biomarkers (glucose, triglyceride, and cholesterol). Similarly, at day 6 (T6), blood samples were collected for the determination of serum biomarker levels. The blood samples were treated in the same manner as described in Example 1.\n[…] Individual body weights were also measured daily from 6 days before the treatment (T-5) to day 7 (T7)."}, "[2]": {"experiment": "Serum half life after single subcutaneous dose in db/db mice (Example 7)", "conditions": "single subcutaneous dose of 4 mg/kg in db/db mice; estimated", "excerpt": "In addition, pegylated NT-4/5 has extended half life in vivo."}, "[3]": {"test_system": "db/db mice", "experiment": "Daily food intake after single injection of NT-4/5 or pegylated NT-4/5 in db/db mice (Example 7, Table 22)", "conditions": "for Daily food intake: single s.c. injection 5 mg/kg, db/db mice, mean", "procedure": "Test animals: 30 female db/db mice at 7 weeks of age weighing in the range of 27-34 g were used in this study.\nAdministration of NT-4/5 and pegylated NT-4/5: Wild type NT-4/5 was obtained from Genentech Inc. The mice were divided into 5 groups of equivalent body weight distribution (6 mice per group). Each group received on the first day (day 1) of the study one and the only dose of either vehicle, 5 mg/kg of NT-4/5 produced as described above, 5 mg/kg of 2PEG-NT4-G1S, or 5 mg/kg of 1PEG-NT4-G1S. 2PEG-NT4-G1S represents one PEG molecule was conjugated to each NT-4/5 monomer in a NT-4/5 dimer, and 1PEG-NT4-G1S represents one PEG molecule was conjugated to only one monomer of the NT-4/5 dimer. 2PEG-NT4-G1S and 1PEG-NT4-G1S were separated by ion exchange. Four days before starting the treatment (day −4), blood samples were collected from the mice as described previously for the determination of baseline levels of serum glucose. On day 4 after the treatment started, blood samples were collected again to determine serum glucose level. Body weight and food intake were monitored 5 days a week through out the entire study."}, "[4]": {"test_system": "Sprague-Dawley rats", "experiment": "Heat/thermal hyperalgesia, latency for foot withdrawal (Example 13)", "procedure": "To test whether NT-4/5 elicits pain in animals after NT-4/5 administration, a heat/thermal hyperalgesia animal model was used for testing. […] Then the latency for foot withdrawal in response to a constant radiant heat source was measured. See, Hargreaves et al., Neurology 48:501-505 (1997); Shu et al., Pain 80:463-470 (1999)."}, "[5]": {"test_system": "db/db mice", "experiment": "Long term glucose control in db/db mice (Example 14)", "procedure": "Db/db mice maintained as described in Example 1 were divided into five groups (groups 1-5). Group 1 were administered with vehicle (PBS). Group 2, group 3, group 4, group 5 were each administered with NT-4/5 at the doses of 2 mg/kg, 5 mg/kg, 10 mg/kg, and 20 mg/kg, respectively. Both the vehicle and NT-4/5 were administered to each group of the mice subcutaneously once daily from day 1 to day 26. One day before beginning the treatment (day 0), blood samples were collected from the mice as described previously for the determination of baseline levels of serum biomarkers (glucose and insulin). On day 45, HbA1c level was measured. Glucose tolerance test was performed on day 54 (28 days after the last dose of NT-4/5 treatment). Intraperitoneal (IP) glucose tolerance test was conducted by fasting the mice overnight (16 hours) before giving them an IP injection of a load of 2 grams of glucose/kg of body weight. Serum glucose and insulin were also measured."}},
  "data": [
    {"molecule": "B1", "values": [
      {"measurement": "food intake as compared to vehicle", "setting": "[1]; 2, 5, 10 and 20 mg/kg", "value": "significantly decreased food intake"},
      {"measurement": "food intake", "setting": "[1]; Day 0, 2 mg/kg s.c. daily", "value": 7.79, "unit": "g"},
      {"measurement": "food intake", "setting": "[1]; Day 0, 5 mg/kg s.c. daily", "value": 7.26, "unit": "g"},
      {"measurement": "food intake", "setting": "[1]; Day 0, 10 mg/kg s.c. daily", "value": 7.48, "unit": "g"},
      {"measurement": "food intake", "setting": "[1]; Day 0, 20 mg/kg s.c. daily", "value": 7.46, "unit": "g"},
      {"measurement": "food intake", "setting": "[1]; Day 1, 2 mg/kg s.c. daily", "value": 5.20, "unit": "g"},
      {"measurement": "food intake", "setting": "[1]; Day 1, 5 mg/kg s.c. daily", "value": 4.55, "unit": "g"},
      {"measurement": "food intake", "setting": "[1]; Day 1, 10 mg/kg s.c. daily", "value": 4.13, "unit": "g"},
      {"measurement": "food intake", "setting": "[1]; Day 1, 20 mg/kg s.c. daily", "value": 4.11, "unit": "g"},
      {"measurement": "food intake", "setting": "[1]; Day 2, 2 mg/kg s.c. daily", "value": 5.87, "unit": "g"},
      {"measurement": "food intake", "setting": "[1]; Day 2, 5 mg/kg s.c. daily", "value": 4.86, "unit": "g"},
      {"measurement": "food intake", "setting": "[1]; Day 2, 10 mg/kg s.c. daily", "value": 5.18, "unit": "g"},
      {"measurement": "food intake", "setting": "[1]; Day 2, 20 mg/kg s.c. daily", "value": 4.66, "unit": "g"},
      {"measurement": "food intake", "setting": "[1]; Day 3, 2 mg/kg s.c. daily", "value": 3.89, "unit": "g"},
      {"measurement": "food intake", "setting": "[1]; Day 3, 5 mg/kg s.c. daily", "value": 3.99, "unit": "g"},
      {"measurement": "food intake", "setting": "[1]; Day 3, 10 mg/kg s.c. daily", "value": 3.85, "unit": "g"},
      {"measurement": "food intake", "setting": "[1]; Day 3, 20 mg/kg s.c. daily", "value": 3.39, "unit": "g"},
      {"measurement": "food intake", "setting": "[1]; Day 4, 2 mg/kg s.c. daily", "value": 4.79, "unit": "g"},
      {"measurement": "food intake", "setting": "[1]; Day 4, 5 mg/kg s.c. daily", "value": 3.69, "unit": "g"},
      {"measurement": "food intake", "setting": "[1]; Day 4, 10 mg/kg s.c. daily", "value": 4.00, "unit": "g"},
      {"measurement": "food intake", "setting": "[1]; Day 4, 20 mg/kg s.c. daily", "value": 3.40, "unit": "g"},
      {"measurement": "food intake", "setting": "[1]; Day 5, 2 mg/kg s.c. daily", "value": 4.19, "unit": "g"},
      {"measurement": "food intake", "setting": "[1]; Day 5, 5 mg/kg s.c. daily", "value": 3.79, "unit": "g"},
      {"measurement": "food intake", "setting": "[1]; Day 5, 10 mg/kg s.c. daily", "value": 3.60, "unit": "g"},
      {"measurement": "food intake", "setting": "[1]; Day 5, 20 mg/kg s.c. daily", "value": 3.06, "unit": "g"},
      {"measurement": "food intake", "setting": "[1]; Day 6, 2 mg/kg s.c. daily", "value": 3.99, "unit": "g"},
      {"measurement": "food intake", "setting": "[1]; Day 6, 5 mg/kg s.c. daily", "value": 3.00, "unit": "g"},
      {"measurement": "food intake", "setting": "[1]; Day 6, 10 mg/kg s.c. daily", "value": 2.56, "unit": "g"},
      {"measurement": "food intake", "setting": "[1]; Day 6, 20 mg/kg s.c. daily", "value": 1.71, "unit": "g"},
      {"measurement": "food intake", "setting": "[1]; Day 7, 2 mg/kg s.c. daily", "value": 4.13, "unit": "g"},
      {"measurement": "food intake", "setting": "[1]; Day 7, 5 mg/kg s.c. daily", "value": 3.48, "unit": "g"},
      {"measurement": "food intake", "setting": "[1]; Day 7, 10 mg/kg s.c. daily", "value": 3.21, "unit": "g"},
      {"measurement": "food intake", "setting": "[1]; Day 7, 20 mg/kg s.c. daily", "value": 2.03, "unit": "g"},
      {"measurement": "serum half life", "setting": "[2]", "value": "41 to 52", "unit": "min"},
      {"measurement": "Daily food intake", "setting": "[3]; Day 1", "value": 6.6, "unit": "g/day"},
      {"measurement": "Daily food intake", "setting": "[3]; Day 2", "value": 5.2, "unit": "g/day"},
      {"measurement": "Daily food intake", "setting": "[3]; Day 3", "value": 7.3, "unit": "g/day"},
      {"measurement": "Daily food intake", "setting": "[3]; Day 4", "value": 6.3, "unit": "g/day"},
      {"measurement": "food intake", "setting": "[3]; single subcutaneous injection, 5 mg/kg, significantly", "value": "reduced"},
      {"measurement": "pain", "setting": "[4]; 2 mg/kg", "value": "did not cause pain"},
      {"measurement": "changes of latency for foot withdrawal in response to radiant heat", "setting": "[4]; 2 mg/kg s.c., 3, 5 and 24 hour after administration", "value": "No statistically significant changes"},
      {"measurement": "serum insulin levels", "setting": "[5]; 10 mg/kg/d, day 6, P<0.05", "value": "significant reduction"},
      {"measurement": "serum insulin levels", "setting": "[5]; 20 mg/kg/d, day 6 and day 14, P<0.05", "value": "significant reduction"},
      {"measurement": "non-fasting serum glucose level reduction", "setting": "[5]; all treatment groups, remained low until day 29", "value": "more than 50%"},
      {"measurement": "HbA1c levels versus vehicle", "setting": "[5]; day 45 (15 days post-dose), 2, 5, 10 and 20 mg/kg s.c. daily day 1 to 26", "value": "significantly lower than the vehicle group"},
      {"measurement": "glucose tolerance", "setting": "[5]; day 54, 28 days after the last dose", "value": "significantly improved glucose tolerance"}
    ]}
  ]
}
